Measurements reported in patent US20250076311A1 (Chugai, published 2025).
Changes are numbered by the printed parent chain. One block for each binder: values may come before it.

Assays:
[1] = molecular target: T1, cynomolgus monkey FcγRIIIaS extracellular domain with C-terminal His-tag (cynomolgus monkey, UniProt A3RFZ7 21-206 (rhesus entry)); assay: SPR (BIACORE), antibody captured, FcgR analyte
T1 construct: also called cyno FcgRIIIaS; cynoFcγRIIIaS; not shown: His-tag added to the C-terminus
Target sequence in this assay (A3RFZ7 21-206): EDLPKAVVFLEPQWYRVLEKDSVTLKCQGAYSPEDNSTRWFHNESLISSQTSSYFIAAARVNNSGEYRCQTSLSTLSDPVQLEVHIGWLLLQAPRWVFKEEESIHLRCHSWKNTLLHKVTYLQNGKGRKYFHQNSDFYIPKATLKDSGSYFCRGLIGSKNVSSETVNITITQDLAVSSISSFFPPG

[2] = molecular target: T2, cynomolgus monkey FcγRIIa3 extracellular domain with C-terminal His-tag (cynomolgus monkey); assay: SPR (BIACORE), antibody captured, FcgR analyte
T2 construct: also called cyno FcgRIIa3; cynoFcγRIIa3; not shown: His-tag added to the C-terminus
T2 chain: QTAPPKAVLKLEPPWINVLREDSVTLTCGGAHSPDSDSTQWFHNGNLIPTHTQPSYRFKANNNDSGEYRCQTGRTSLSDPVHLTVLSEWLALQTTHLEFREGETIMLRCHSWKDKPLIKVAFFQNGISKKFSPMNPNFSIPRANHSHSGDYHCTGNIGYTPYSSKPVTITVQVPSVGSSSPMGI

[3] = molecular target: T3, human FcγRIIaR extracellular domain with C-terminal His-tag (human, UniProt P12318 34-217); assay: SPR (BIACORE), antibody captured, FcgR analyte
T3 construct: also called human FcgRIIaR; FcγRIIa type R; not shown: His-tag added to the C-terminus
T3 chain: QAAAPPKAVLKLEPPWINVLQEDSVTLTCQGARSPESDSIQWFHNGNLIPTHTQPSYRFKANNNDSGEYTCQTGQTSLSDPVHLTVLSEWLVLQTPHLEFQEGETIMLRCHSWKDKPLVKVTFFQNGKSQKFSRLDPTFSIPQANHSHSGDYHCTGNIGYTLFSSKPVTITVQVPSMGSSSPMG

[4] = molecular target: T4, human FcγRIIaH extracellular domain with C-terminal His-tag (human, UniProt P12318 34-217); assay: SPR (BIACORE), antibody captured, FcgR analyte
T4 construct: also called human FcgRIIaH; FcγRIIa type H; not shown: His-tag added to the C-terminus
T4 sequence: T3 chain with R134H

[5] = molecular target: T5, cynomolgus monkey FcγRIIa2 extracellular domain with C-terminal His-tag (cynomolgus monkey); assay: SPR Biacore, antibody captured, FcgR analyte
T5 construct: also called cyno FcgRIIa2; cynoFcγRIIa2; not shown: His-tag added to C-terminus
T5 chain: T2 chain with I127K, K130N, P133H, R142Q

[6] = molecular target: T6, cynomolgus monkey FcγRIIIaS extracellular domain with C-terminal His-tag (cynomolgus monkey, UniProt A3RFZ7 21-206 (rhesus entry)); assay: SPR Biacore, antibody captured, FcgR analyte
T6 construct: also called cyno FcgRIIIaS; cynoFcγRIIIaS; not shown: His-tag added to C-terminus

[7] = molecular target: T7, cynomolgus monkey FcγRIIb extracellular domain with C-terminal His-tag (cynomolgus monkey); assay: SPR Biacore, antibody captured, FcgR analyte
T7 construct: also called cyno FcgRIIb; cynoFcγRIIb; not shown: His-tag added to C-terminus
T7 chain: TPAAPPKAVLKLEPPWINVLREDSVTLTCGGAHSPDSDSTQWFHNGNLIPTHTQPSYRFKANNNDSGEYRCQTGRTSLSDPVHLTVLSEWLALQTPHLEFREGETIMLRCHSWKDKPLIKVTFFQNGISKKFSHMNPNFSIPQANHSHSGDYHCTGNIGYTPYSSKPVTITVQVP

[8] = molecular target: T8, human FcγRIIb extracellular domain with C-terminal His-tag (human, UniProt P31994 43-217); assay: SPR Biacore, antibody captured, FcgR analyte
T8 construct: also called human FcgRIIb; not shown: His-tag added to C-terminus
T8 sequence: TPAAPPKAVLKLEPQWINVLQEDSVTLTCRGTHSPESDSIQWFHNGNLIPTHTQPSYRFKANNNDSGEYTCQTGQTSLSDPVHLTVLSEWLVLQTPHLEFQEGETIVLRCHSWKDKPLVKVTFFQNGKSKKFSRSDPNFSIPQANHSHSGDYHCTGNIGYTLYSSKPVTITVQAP

[9] = molecular target: T9, cynomolgus monkey FcγRIIa3 extracellular domain with C-terminal His-tag (cynomolgus monkey); assay: SPR Biacore, antibody captured, FcgR analyte
T9 construct: also called cyno FcgRIIa3; cynoFcγRIIa3; not shown: His-tag added to C-terminus
T9 chain: T2 chain

B2: M103205H795-MY208/M103202L889-SK1 (antibody, human IgG1, kappa, name in EU numbering)
heavy: QVTLKESGPVLVKPTETLTLTCTVSGIDLSHDDISWVRQAPGKGLEWVGIISYAGSTYYASWAKGRLTISKDTSKNQVVLTMTNMDPVDTATYYCARGVPAYSHGGDLWGQGTLVTVSSASTKGPSVFPLAPSSKSTSGGTAALGCLVKDYFPEPVTVSWNSGALTSGVHTFPAVLQSSGLYSLSSVVTVPSSSLGTQTYICNVNHKPSNTKVDKKVEPKSCDKTHTCPPCPAPELLNGPSVFLFPPKPKDTLMISRTPEVTCVVVDVSDEDPEVKFNWYVDGVEVHNAKTKPREELYNSTYRVVSVLTVLHQDWLNGKEYKCKVSNKALPAPIEKTISKAKGQPREPQVYTLPPSREEMTKNQVSLTCLVKGFYPSDIAVEWESNGQPENNYKTTPPVLDSDGSFFLYSKLTVDKSRWQQGNVFSCSVMHEALHNHYTQKSLSLSP
light: DIVMTQSPATLSLSPGERATLSCTSSQSVYHANWLSWFQQKPGQPPKLLIYWASTLAYGVPSRFSGSGSGTDFTLTISSLQPEDAATYYCAGGYGGGRYAFGQGTKVEIKRTVAAPSVFIFPPSDEQLKSGTASVVCLLNNFYPREAKVQWKVDNALQSGNSQESVTEQDSKDSTYSLSSTLTLSKADYEKHKVYACEVTHQGLSSPVTKSFNRGEC
notes: substitutions in EU numbering, introduced into M103205H795-SG1
KD fold (SG1 = 1) [5]: 3.4 fold
KD fold (SG1 = 1) [6]: 0.13 fold

B3: M103205H795-MY184/M103202L889-SK1 (antibody, human IgG1, kappa, name in EU numbering)
heavy: B2 heavy with D270E, L297Q, P398Y
light: B2 light
notes: EU numbering
Kd [7]: 0.9 µM
KD fold (SG1 = 1) [5]: 2.8 fold
KD fold (SG1 = 1) [6]: 0.11 fold
Kd [6]: 3.3 µM
KD fold (SG1 = 1) [8]: 4.7 fold

B5: M103205H795-MY207/M103202L889-SK1 (antibody, human IgG1, kappa, name in EU numbering)
heavy: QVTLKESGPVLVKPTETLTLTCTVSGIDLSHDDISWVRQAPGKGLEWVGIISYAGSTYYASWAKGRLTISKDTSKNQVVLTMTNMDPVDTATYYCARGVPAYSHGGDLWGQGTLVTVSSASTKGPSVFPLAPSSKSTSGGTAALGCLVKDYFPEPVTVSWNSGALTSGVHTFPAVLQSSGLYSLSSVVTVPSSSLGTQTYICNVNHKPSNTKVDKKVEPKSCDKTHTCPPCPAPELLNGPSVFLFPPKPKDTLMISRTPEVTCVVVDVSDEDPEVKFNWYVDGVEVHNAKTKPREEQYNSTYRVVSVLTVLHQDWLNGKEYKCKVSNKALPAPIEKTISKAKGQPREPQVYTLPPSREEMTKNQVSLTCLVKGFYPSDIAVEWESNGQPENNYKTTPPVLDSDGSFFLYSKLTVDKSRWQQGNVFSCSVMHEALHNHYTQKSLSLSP
light: B2 light
notes: as for B2
KD fold (SG1 = 1) [5]: 3.6 fold
KD fold (SG1 = 1) [6]: 0.09 fold

Other lines, results leading:

Kd [1]: 11 µM
Kd [2]: 6.4 µM
Kd [3]: 0.019 µM
Kd [4]: 1.6 µM
B1: M103205H795-MY434/M103202L889-SK1 (antibody, human IgG1, kappa, name in EU numbering)
heavy: B2 heavy with L237W, L297Q, A332K
light: B2 light
notes: Fc variant of MS1032LO06-SG1; positions in EU numbering

KD fold (SG1 = 1) [5]: 8.8 fold
KD fold (SG1 = 1) [9]: 6.5 fold
KD fold (SG1 = 1) [6]: 0.17 fold
B4: M103205H795-MY211/M103202L889-SK1 (antibody, human IgG1, kappa, name in EU numbering)
heavy: B2 heavy with S241V, L297Q, K328T, A332K
light: B2 light
notes: as for B2
